Results published in patent US20120308554A1, “VEGF-D/VEGFR2/3-MEDIATED REGULATION OF DENDRITES” (UNIVERSITAT HEIDELBERG, priority 2011, published 2012).

Key:
Type in all cases: cell-based, mice
hippocampal cultures = test: MEA recordings of spontaneous network activity; details: rAAV-shVEGFD infected cultures, 100 ng/ml rVEGFD added to media
Procedure: MEA recordings were done as known in the art. From DIV7 to DIV13, recordings of spontaneous network activity were acquired for 5 min once per day.

CREB = test: Immunoblot analysis with phospho-specific antibodies, CREB; details: rVEGFD treatment for various lengths of time
Procedure: (§1) A: Immunoblot analysis using phosphor-specific antibodies of hippocampal neurons with or without rVEGFD treatment for the indicated times. Tubulin was used as loading control.
(§2) B: Quantification of the experiment shown in A. rVEGFD treatment causes a significant increase of CREB, ERK1/2 and p38 MAP kinase phosphorylation. All values are expressed as percentage of untreated controls (n=5).
(§3) Next, the signaling mechanisms through which VEGFD controls dendrite architecture were determined. Cell lysates from hippocampal neurons treated with rVEGFD for various lengths of time were subjected to immunoblot analysis using a large panel of antibodies that are specific for the phosphorylated (i.e. activated) forms of signaling molecules (FIG. 9). […] Therefore, it was determined whether p38 MAPK mediates the effects of VEGFD on dendrite geometry. […] Because SB203580 inhibits the alpha and beta isoforms of p38 MAPK, the role of p38 MAPK in VEGFD-mediated dendritic arborization by RNAi was further investigated. Two pAAVs, shp38α and shp38β, that contain expression cassettes for shRNAs specific for the alpha and the beta isoform, respectively, of p38 MAPK, were generated.

hippocampal neurons = test: Morphometric analyses (total dendritic length, Sholl analysis, spine density) of cultured hippocampal neurons
Procedure: Hippocampal neurons from newborn C57BL/6 mice were cultured as known in the art. Experiments were done after a culturing period of 10 to 14 days in vitro (DIV). DNA transfection was done on DIV8 using Lipofectamine 2000 (Invitrogen, San Diego, Calif.). For the studies on dendrite morphology, neurons were analyzed 4-5 days after transfection.
For 3D Sholl Analysis, total dendritic length and spine morphology were calculated using Object-Image freeware software with a specific set of macros (written by Dr. E. Ruthazer, McGill University, Quebec). Briefly, a z-Stack acquisition was imported, calibrated in Object-Image and manually traced. Total dendritic length was then computed. For Sholl analysis, the shell interval was set at 5 μm. All analyses were performed blind. In all in vitro experiments, for each condition, a minimum of 12 neurons from three independent preparations was analyzed. For the Golgi staining quantifications of 20 neurons for each condition from 4 different injected animals per viral construct were traced and analyzed.
Hippocampal neurons were fixed with 4% paraformaldehyde at room temperature for 20 min. For immunostaining, primary and secondary antibodies were applied in GDB buffer (30 mM phosphate buffer [pH7.4] containing 0.2% gelatin, 0.5% Triton X-100, and 0.9 M NaCl). For the morphometric analyses, fluorescence images were acquired using a confocal laser-scanning microscope TCS SP2 (Leica, Mannheim, Germany) equipped with an inverted fluorescence microscope DM IRE2 (Leica) and Leica confocal scan software. All images were obtained with sequential acquisition setting at a resolution of 1024×1024 pixels. Each image was a z series projection of images taken at 1 μm intervals.

p38 MAP kinase = test: Immunoblot analysis with phospho-specific antibodies, p38 MAP kinase; details: rVEGFD treatment for various lengths of time
Procedure: as §1, §2, §3

ERK1/2 = test: Immunoblot analysis with phospho-specific antibodies, ERK1/2; details: rVEGFD treatment for various lengths of time
Procedure: as §1, §2, §3

B1: rVEGFD: recombinant mouse VEGFD (R&D Systems) (protein)
chain: FAATFYDTETLKVIDEEWQRTQCSPRETCVEVASELGKTTNTFFKPPCVNVFRCGGCCNEEGVMCMNTSTSYISKQLFEISVPLTSVPELVPVKIANHTGCKCLPTGPRHPYSIIRR
rescue of decreased spike frequency (hippocampal cultures): partly rescued
CREB phosphorylation (CREB): significant but moderate
dendrite length or complexity (hippocampal neurons; neurons transfected with pAAV-shSCR and pAAV-emptymC, rVEGFD 100 ng/ml 3 days): did not affect dendrite length or complexity
neuronal morphology (hippocampal neurons; neurons without nuclear calcium signaling blockade): no detectable effect on neuronal morphology
effect on reduction of dendrite length and complexity caused by shVEGFD (hippocampal neurons; pAAV-shVEGFD transfected neurons, rVEGFD 100 ng/ml 3 days or co-transfection): reversed
restoration of spine density in CaMBP4 or CaMKIVK75E expressing neurons (hippocampal neurons; rVEGFD 100 ng/ml 3 days or VEGFD-HA expression): failed to restore normal spine density
rescue of reduction in dendrite length and complexity caused by CaMBP4 or CaMKIVK75E (hippocampal neurons; recombinant factors 100 ng/ml for 3 days, or VEGFD-HA expression): rescued the reduction in dendrite length and complexity
activation of p38 MAPK (p38 MAP kinase): very robust
ERK1/2 phosphorylation (ERK1/2): significant but moderate
